Test results taken from publication PMC10397247.
One block for each binder: values may come before it.

Columns and labels:
4H446-AA = target: T1, 4H446-AA; assay: two-hybrid library CCmax; details: mean of both orientations;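 also: natural log of median RNA to DNA barcode read ratio; higher means stronger binding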
T1 chain: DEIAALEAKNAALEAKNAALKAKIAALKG

4H2760-AA = target: T2, 4H2760-AA; assay: two-hybrid library CCmax; details: mean of both orientations;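 also: natural log of median RNA to DNA barcode read ratio; higher means stronger binding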
T2 chain: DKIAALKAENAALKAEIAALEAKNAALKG

4H3974-AA = target: T3, 4H3974-AA; assay: two-hybrid library CCmax; details: mean of both orientations;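 also: natural log of median RNA to DNA barcode read ratio; higher means stronger binding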
T3 chain: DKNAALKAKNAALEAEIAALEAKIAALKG

4H249-AA = target: T4, 4H249-AA; assay: two-hybrid library CCmax; details: mean of both orientations;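 also: natural log of median RNA to DNA barcode read ratio; higher means stronger binding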
T4 chain: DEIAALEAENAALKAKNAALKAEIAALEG

4H2961-AA = target: T5, 4H2961-AA; assay: two-hybrid library CCmax; details: mean of both orientations;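 also: natural log of median RNA to DNA barcode read ratio; higher means stronger binding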
T5 chain: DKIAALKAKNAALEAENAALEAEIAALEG

4H2947-AA = target: T6, 4H2947-AA; assay: two-hybrid library CCmax; details: mean of both orientations;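 also: natural log of median RNA to DNA barcode read ratio; higher means stronger binding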
T6 chain: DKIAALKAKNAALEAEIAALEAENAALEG

4H2774-AA = target: T7, 4H2774-AA; assay: two-hybrid library CCmax; details: mean of both orientations
T7 chain: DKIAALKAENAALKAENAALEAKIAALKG

4H3915-AA = target: T8, 4H3915-AA; assay: two-hybrid library CCmax; details: mean of both orientations
T8 chain: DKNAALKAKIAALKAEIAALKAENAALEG

4H63-AA = target: T9, 4H63-AA; assay: two-hybrid library CCmax; details: mean of both orientations
T9 chain: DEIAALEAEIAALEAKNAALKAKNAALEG

4H3449-AA = target: T10, 4H3449-AA; assay: two-hybrid library CCmax; details: mean of both orientations
T10 chain: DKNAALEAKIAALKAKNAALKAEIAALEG

4H3049-AA = target: T11, 4H3049-AA; assay: two-hybrid library CCmax; details: mean of both orientations
T11 chain: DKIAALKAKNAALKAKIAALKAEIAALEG

4H3094-AA = target: T12, 4H3094-AA; assay: two-hybrid library CCmax; details: mean of both orientations
T12 chain: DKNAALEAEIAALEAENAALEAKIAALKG

4H380-AA = target: T13, 4H380-AA; assay: two-hybrid library CCmax; details: mean of both orientations
T13 chain: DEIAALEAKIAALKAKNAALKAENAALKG

4H3629-AA = target: T14, 4H3629-AA; assay: two-hybrid library CCmax; details: mean of both orientations
T14 chain: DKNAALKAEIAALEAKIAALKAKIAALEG

4H2580-AA = target: T15, 4H2580-AA; assay: two-hybrid library CCmax; details: mean of both orientations
T15 chain: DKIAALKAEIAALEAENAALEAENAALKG

4H324-AA = target: T16, 4H324-AA; assay: two-hybrid library CCmax; details: mean of both orientations
T16 chain: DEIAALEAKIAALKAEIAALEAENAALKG

4H432-AA = target: T17, 4H432-AA; assay: two-hybrid library CCmax; details: mean of both orientations
T17 chain: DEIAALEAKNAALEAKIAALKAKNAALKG

4H235-AA = target: T18, 4H235-AA; assay: two-hybrid library CCmax
T18 chain: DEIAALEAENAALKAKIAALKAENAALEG

4H2903-AA = target: T19, 4H2903-AA; assay: two-hybrid library CCmax; details: mean of both orientations
T19 chain: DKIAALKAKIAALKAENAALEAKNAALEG

4H341-AA = target: T20, 4H341-AA; assay: two-hybrid library CCmax; details: mean of both orientations
T20 chain: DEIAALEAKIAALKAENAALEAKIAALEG

4H3777-AA = target: T21, 4H3777-AA; assay: two-hybrid library CCmax; details: mean of both orientations
T21 chain: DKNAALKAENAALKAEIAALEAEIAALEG

4H2621-AA = target: T22, 4H2621-AA; assay: two-hybrid library CCmax; details: mean of both orientations
T22 chain: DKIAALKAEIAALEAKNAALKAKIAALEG

4H3619-AA = target: T23, 4H3619-AA; assay: two-hybrid library CCmax; details: mean of both orientations
T23 chain: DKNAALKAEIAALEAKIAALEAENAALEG

4H2604-AA = target: T24, 4H2604-AA; assay: two-hybrid library CCmax; details: mean of both orientations
T24 chain: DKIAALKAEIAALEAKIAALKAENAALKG

4H3354-bA = target: T25, 4H3354-bA; assay: two-hybrid library CCNG1
T25 chain: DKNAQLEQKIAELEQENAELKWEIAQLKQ

4H3112-bA = target: T26, 4H3112-bA; assay: two-hybrid library CCNG1
T26 chain: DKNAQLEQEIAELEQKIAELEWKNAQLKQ

4H908-bA = target: T27, 4H908-bA; assay: two-hybrid library CCNG1; details: mean of both orientations
T27 chain: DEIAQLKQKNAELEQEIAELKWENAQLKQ

4H754-bA = target: T28, 4H754-bA; assay: two-hybrid library CCNG1
T28 chain: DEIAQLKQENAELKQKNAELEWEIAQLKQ

4H3185-bA = target: T29, 4H3185-bA; assay: two-hybrid library CCNG1
T29 chain: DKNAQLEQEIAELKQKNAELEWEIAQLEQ

4H454-bA = target: T30, 4H454-bA; assay: two-hybrid library CCNG1
T30 chain: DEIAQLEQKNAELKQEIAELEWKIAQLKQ

4H883-bA = target: T31, 4H883-bA; assay: two-hybrid library CCNG1
T31 chain: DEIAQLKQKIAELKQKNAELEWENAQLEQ

4H797-bA = target: T32, 4H797-bA; assay: two-hybrid library CCNG1
T32 chain: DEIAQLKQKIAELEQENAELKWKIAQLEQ

4H2729-bA = target: T33, 4H2729-bA; assay: two-hybrid library CCNG1
T33 chain: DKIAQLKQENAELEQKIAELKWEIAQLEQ

4H72-bA = target: T34, 4H72-bA; assay: two-hybrid library CCNG1
T34 chain: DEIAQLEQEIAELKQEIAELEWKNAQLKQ

4H331-bA = target: T35, 4H331-bA; assay: two-hybrid library CCNG1
T35 chain: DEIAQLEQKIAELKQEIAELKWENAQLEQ

4H918-bA = target: T36, 4H918-bA; assay: two-hybrid library CCNG1
T36 chain: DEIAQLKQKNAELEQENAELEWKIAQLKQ

4H338-bA = target: T37, 4H338-bA; assay: two-hybrid library CCNG1
T37 chain: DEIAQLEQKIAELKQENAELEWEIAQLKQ

4H953-bA = target: T38, 4H953-bA; assay: two-hybrid library CCNG1
T38 chain: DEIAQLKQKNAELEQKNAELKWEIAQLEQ

4H967-bA = target: T39, 4H967-bA; assay: two-hybrid library CCNG1
T39 chain: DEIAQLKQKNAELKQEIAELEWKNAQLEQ

4H3427-bA = target: T40, 4H3427-bA; assay: two-hybrid library CCNG1
T40 chain: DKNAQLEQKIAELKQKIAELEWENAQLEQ

4H568-bA = target: T41, 4H568-bA; assay: two-hybrid library CCNG1
T41 chain: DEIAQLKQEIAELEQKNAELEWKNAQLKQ

4H607-bA = target: T42, 4H607-bA; assay: two-hybrid library CCNG1
T42 chain: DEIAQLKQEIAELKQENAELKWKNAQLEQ

4H4001-bA = target: T43, 4H4001-bA; assay: two-hybrid library CCNG1
T43 chain: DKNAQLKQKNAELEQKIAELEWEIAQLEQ

4H3855-bA = target: T44, 4H3855-bA; assay: two-hybrid library CCNG1
T44 chain: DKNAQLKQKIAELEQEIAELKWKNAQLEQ

4H687-bA = target: T45, 4H687-bA; assay: two-hybrid library CCNG1
T45 chain: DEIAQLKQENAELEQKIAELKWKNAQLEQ

4H3782-bA = target: T46, 4H3782-bA; assay: two-hybrid library CCNG1
T46 chain: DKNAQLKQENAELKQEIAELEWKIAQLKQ

4H717-bA = target: T47, 4H717-bA; assay: two-hybrid library CCNG1
T47 chain: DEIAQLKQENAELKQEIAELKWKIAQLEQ

P8A = target: T48, P8A; assay: two-hybrid library CCNG1
T48 chain: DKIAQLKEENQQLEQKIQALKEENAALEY

P7A = target: T49, P7A; assay: two-hybrid library CCNG1
T49 chain: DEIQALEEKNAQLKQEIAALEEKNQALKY

P6A = target: T50, P6A; assay: two-hybrid library CCNG1; details: mean of both orientations
T50 chain: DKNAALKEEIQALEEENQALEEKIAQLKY

P9A = target: T51, P9A; assay: two-hybrid library CCNG1
T51 chain: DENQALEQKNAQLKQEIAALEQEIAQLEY

P5A = target: T52, P5A; assay: two-hybrid library CCNG1
T52 chain: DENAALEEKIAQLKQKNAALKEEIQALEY

- interaction score (4H446-AA): -1.78
- interaction score (4H2760-AA): 2.27
- interaction score (4H3974-AA): -0.571
- interaction score (4H249-AA): -1.7
- interaction score (4H2961-AA): -1.27
- interaction score (4H2947-AA): 0.136
- interaction score (4H2774-AA): 1.48
- interaction score (4H3915-AA): -1.49
- interaction score (4H63-AA): -1.28
- interaction score (4H3449-AA): 0.816
- interaction score (4H3049-AA): -0.98
- interaction score (4H3094-AA): 0.0844
- interaction score (4H380-AA): -1.71
- interaction score (4H3629-AA): -1.09
- interaction score (4H2580-AA): -0.865
- interaction score (4H324-AA): -1.12
- interaction score (4H432-AA): -0.27
- interaction score (4H235-AA): -1.14
- interaction score (4H2903-AA): -1.68
- interaction score (4H341-AA): -0.261
- interaction score (4H3777-AA): 0.00925
- interaction score (4H2621-AA): -0.985
- interaction score (4H3619-AA): -1.48
- interaction score (4H2604-AA): -1.14
Binder: DEIAALEAENAALKAKIAALKAENAALEG [4H235-AA]

- interaction score (4H3354-bA): -0.919
- interaction score (4H3112-bA): -0.141
- interaction score (4H908-bA): -0.401
- interaction score (4H754-bA): -0.709
- interaction score (4H3185-bA): -0.331
- interaction score (4H454-bA): 1.84
- interaction score (4H883-bA): -1.72
- interaction score (4H797-bA): -1.21
- interaction score (4H2729-bA): -0.254
- interaction score (4H72-bA): -0.336
- interaction score (4H331-bA): -1.18
- interaction score (4H918-bA): 1.73
- interaction score (4H338-bA): -0.713
- interaction score (4H953-bA): -1.01
- interaction score (4H967-bA): 0.0132
- interaction score (4H3427-bA): -0.88
- interaction score (4H568-bA): -1.78
- interaction score (4H607-bA): -1.29
- interaction score (4H4001-bA): -0.575
- interaction score (4H3855-bA): -0.46
- interaction score (4H687-bA): -1.51
- interaction score (4H3782-bA): 0.712
- interaction score (4H717-bA): -1.35
Binder: DKIAQLKQENAELEQKIAELKWEIAQLEQ [4H2729-bA]

- interaction score (P8A): -1.04
- interaction score (P7A): -1.31
- interaction score (P6A): 1.19
- interaction score (P9A): -1.38
- interaction score (P5A): -1.41
Binder: DENAALEEKIAQLKQKNAALKEEIQALEY [P5A]
